Measured values published in the supplement of paper PMC10065799, “High-throughput profiling of sequence recognition by tyrosine kinases and SH2 domains using bacterial peptide display” (eLife, 2023).

Columns and labels:
[1] = test system: AncSZ; assay: phosphorylation enrichment, bacterial display (enrichment ratio); higher = better substrate or ligand; peptides without Tyr show the background
[2] = biological target: EPHB1 (UniProt P54762); assay: as above
[3] = biological target: EPHB2 (UniProt P29323); assay: as above
EPHB2, sequence (P29323 whole entry, looked up): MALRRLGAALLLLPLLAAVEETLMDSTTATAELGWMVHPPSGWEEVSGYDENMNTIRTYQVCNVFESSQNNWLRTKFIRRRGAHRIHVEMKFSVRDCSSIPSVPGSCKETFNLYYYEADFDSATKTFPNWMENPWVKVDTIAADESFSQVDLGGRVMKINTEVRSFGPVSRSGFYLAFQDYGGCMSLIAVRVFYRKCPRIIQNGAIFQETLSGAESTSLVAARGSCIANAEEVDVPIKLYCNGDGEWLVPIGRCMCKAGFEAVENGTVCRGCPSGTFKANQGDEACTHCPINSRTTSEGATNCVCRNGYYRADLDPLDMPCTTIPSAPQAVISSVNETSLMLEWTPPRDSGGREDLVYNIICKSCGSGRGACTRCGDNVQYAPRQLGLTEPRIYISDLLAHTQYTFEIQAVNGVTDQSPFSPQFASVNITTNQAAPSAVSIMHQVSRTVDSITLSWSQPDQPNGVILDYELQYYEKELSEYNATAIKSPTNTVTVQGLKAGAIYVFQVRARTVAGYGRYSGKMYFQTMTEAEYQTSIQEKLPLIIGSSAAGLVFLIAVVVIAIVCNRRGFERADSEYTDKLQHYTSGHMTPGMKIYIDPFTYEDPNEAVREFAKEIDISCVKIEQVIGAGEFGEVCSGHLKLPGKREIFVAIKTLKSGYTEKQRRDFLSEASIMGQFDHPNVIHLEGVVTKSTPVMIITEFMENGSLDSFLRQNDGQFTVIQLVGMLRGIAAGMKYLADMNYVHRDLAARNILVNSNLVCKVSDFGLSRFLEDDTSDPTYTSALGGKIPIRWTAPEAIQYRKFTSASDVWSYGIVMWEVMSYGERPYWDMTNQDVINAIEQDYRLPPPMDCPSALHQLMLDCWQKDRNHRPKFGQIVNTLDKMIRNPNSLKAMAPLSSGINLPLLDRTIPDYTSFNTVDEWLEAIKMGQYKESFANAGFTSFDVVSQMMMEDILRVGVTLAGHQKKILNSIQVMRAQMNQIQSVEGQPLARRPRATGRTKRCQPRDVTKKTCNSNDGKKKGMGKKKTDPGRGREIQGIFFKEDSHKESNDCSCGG

[4] = biological target: FGFR1 (UniProt P11362); assay: as above
FGFR1, sequence (P11362 whole entry, looked up): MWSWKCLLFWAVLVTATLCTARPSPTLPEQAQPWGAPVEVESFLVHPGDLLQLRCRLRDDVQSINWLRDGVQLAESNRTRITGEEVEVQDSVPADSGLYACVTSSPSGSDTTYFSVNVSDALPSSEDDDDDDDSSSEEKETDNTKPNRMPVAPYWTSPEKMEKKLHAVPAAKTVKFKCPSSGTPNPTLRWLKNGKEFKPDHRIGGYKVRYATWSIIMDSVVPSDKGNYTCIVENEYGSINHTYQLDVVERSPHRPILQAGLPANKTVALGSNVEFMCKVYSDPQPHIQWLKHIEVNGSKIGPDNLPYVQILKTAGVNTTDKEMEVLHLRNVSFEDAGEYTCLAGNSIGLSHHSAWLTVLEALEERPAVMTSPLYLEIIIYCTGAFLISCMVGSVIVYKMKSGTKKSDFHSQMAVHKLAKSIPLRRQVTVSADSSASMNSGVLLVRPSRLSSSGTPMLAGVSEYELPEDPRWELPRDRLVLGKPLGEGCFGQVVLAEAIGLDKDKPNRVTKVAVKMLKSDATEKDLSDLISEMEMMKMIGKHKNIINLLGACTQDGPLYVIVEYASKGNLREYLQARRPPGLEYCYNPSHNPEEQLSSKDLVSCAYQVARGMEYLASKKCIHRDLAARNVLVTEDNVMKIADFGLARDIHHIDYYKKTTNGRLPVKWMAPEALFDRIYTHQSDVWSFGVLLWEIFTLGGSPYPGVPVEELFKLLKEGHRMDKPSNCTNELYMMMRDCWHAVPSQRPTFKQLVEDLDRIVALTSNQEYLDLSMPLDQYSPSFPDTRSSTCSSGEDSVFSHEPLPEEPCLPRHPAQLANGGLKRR

[5] = biological target: FGFR3 (UniProt P22607); assay: as above
[6] = test system: Fer (mouse); assay: as above
[7] = biological target: Fes (UniProt P07332); assay: as above
[8] = biological target: Fyn (UniProt P06241); assay: as above
Fyn, sequence (P06241 whole entry, looked up): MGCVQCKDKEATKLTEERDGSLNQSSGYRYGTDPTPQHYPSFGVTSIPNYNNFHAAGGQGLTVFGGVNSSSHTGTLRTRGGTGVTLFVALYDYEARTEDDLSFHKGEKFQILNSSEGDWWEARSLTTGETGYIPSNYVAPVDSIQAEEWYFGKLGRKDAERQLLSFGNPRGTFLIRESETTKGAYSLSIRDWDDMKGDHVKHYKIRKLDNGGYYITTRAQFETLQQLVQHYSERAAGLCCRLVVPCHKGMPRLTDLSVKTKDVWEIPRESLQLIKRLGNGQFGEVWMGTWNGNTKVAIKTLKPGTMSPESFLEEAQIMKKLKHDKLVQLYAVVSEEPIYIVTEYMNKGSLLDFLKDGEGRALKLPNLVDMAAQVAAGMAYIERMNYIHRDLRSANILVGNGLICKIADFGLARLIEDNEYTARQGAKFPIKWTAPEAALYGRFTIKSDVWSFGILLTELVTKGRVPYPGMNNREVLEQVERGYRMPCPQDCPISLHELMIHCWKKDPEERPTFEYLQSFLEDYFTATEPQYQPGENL

[9] = biological target: Hck (UniProt P08631); assay: as above
[10] = biological target: Jak2 (UniProt O60674); assay: as above
Jak2, sequence (O60674 whole entry, looked up): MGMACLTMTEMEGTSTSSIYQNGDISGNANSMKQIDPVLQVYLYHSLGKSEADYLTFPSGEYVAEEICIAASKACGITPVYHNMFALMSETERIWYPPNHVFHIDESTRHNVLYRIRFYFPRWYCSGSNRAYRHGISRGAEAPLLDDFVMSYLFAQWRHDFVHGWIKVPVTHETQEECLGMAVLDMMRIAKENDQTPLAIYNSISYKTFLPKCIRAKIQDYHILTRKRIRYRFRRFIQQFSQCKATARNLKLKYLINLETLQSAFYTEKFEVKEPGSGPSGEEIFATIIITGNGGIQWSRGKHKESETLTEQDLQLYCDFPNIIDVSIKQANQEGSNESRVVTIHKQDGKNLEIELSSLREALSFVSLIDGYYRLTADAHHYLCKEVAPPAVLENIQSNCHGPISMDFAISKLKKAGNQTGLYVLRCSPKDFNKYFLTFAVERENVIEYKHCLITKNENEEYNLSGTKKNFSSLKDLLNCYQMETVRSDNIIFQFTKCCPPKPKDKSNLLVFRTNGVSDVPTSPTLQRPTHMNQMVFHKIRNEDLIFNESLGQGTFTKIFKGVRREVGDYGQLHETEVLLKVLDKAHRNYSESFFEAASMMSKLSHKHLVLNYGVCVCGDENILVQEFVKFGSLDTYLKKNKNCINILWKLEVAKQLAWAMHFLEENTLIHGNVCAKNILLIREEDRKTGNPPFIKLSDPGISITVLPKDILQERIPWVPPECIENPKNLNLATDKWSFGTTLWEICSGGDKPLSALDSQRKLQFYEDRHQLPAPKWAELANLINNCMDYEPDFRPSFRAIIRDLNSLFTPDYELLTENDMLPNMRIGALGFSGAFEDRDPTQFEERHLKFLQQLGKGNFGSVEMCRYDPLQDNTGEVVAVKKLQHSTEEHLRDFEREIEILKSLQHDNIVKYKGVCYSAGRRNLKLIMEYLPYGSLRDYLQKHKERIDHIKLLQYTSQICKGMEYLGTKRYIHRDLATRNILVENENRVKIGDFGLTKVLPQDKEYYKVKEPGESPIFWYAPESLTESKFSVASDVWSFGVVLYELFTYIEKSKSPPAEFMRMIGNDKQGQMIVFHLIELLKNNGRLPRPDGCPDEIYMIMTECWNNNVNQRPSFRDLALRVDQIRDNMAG

[11] = biological target: MERTK (UniProt Q12866); assay: as above
[12] = test system: c-Abl (mouse); assay: as above
[13] = test system: c-Src; assay: as above
[14] = biological target: Grb2 SH2 (UniProt P62993); assay: SH2 binding enrichment of the phosphorylated peptide, bacterial display (enrichment ratio); higher = better substrate or ligand; peptides without Tyr show the background
Grb2 SH2, sequence (P62993 whole entry, looked up): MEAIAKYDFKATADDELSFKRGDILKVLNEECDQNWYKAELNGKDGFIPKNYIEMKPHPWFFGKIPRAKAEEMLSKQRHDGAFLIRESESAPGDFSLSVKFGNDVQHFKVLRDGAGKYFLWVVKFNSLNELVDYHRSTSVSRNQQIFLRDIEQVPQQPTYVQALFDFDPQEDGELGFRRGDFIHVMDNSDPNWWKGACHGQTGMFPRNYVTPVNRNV

[15] = biological target: SHP2-C SH2; assay: as above
[16] = biological target: c-Src SH2; assay: as above
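Wherever SH2 binding enrichment of the phosphorylated peptide, bacterial display is given: peptide library displayed on the E. coli surface as eCPX fusions, selected cells deep-sequenced, score is each peptide's frequency after selection divided by its frequency in the input.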
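Wherever phosphorylation enrichment, bacterial display is given: 11-residue human phosphosite peptides and single-mutation variants displayed on the E. coli surface, counted by deep sequencing, each peptide's frequency after selection divided by its frequency in the unselected input library; frequency after pTyr selection over input frequency; kinase dosed for 20-30% of maximal phosphorylation in three min.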

EPHB1, sequence (P54762 whole entry, looked up): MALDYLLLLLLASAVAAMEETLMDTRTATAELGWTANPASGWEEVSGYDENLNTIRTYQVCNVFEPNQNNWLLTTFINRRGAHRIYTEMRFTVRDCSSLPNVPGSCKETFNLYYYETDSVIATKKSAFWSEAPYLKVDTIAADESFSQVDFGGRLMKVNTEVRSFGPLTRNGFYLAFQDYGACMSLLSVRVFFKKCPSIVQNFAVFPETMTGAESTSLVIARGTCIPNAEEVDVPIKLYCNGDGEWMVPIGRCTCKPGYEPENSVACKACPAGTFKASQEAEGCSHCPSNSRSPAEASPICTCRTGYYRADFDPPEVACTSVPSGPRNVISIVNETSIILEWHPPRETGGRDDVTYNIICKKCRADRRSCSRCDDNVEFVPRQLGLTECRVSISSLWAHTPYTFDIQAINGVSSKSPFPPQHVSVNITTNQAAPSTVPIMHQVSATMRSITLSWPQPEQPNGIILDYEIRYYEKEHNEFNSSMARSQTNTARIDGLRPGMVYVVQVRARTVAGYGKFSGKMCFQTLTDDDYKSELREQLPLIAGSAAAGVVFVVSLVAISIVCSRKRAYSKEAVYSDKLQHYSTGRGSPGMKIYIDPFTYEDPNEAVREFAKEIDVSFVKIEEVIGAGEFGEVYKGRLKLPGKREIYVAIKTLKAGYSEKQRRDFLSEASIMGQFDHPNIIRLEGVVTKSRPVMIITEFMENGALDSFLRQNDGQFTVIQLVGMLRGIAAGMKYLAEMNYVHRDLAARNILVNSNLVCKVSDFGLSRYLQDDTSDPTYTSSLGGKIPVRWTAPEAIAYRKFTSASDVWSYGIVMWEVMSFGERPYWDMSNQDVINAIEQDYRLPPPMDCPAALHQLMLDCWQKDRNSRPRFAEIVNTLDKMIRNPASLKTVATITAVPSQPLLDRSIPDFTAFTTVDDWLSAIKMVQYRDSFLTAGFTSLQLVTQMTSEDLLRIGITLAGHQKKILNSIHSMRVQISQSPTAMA

Sequence	phosphorylation enrichment [1]	phosphorylation enrichment [2]	phosphorylation enrichment [3]	phosphorylation enrichment [4]	phosphorylation enrichment [5]	phosphorylation enrichment [6]	phosphorylation enrichment [7]	phosphorylation enrichment [8]	phosphorylation enrichment [9]	phosphorylation enrichment [10]	phosphorylation enrichment [11]	phosphorylation enrichment [12]	phosphorylation enrichment [13]	SH2 binding enrichment [14]	SH2 binding enrichment [15]	SH2 binding enrichment [16]
GDRPVYSEDEQ [CHST6_Y362_Y358D]	1.54	0.812	0.702	0.667	0.872	0.653	1.57	0.698	0.662	1.27	0.565	1.06	0.673	0.992	0.639	0.82
SYTDPYAQPSL [KMT2D_Y2378_P2382S]	1.18	0.583	0.568	3.11	1.89	0.479	1	0.611	0.567	0.718	0.532	0.82	0.576	0.823	0.775	2.6
SCRENYSDSEE [LEMD3_Y258]	1.07	0.607	0.619	0.547	0.694	0.434	1.14	0.52	0.502	1	0.539	0.792	0.475	1.05	0.832	0.78
RSAGKDDVYLI [MECP2_Y120_Y120D]	0.755	0.551	0.603	0.513	0.594	0.521	0.862	1.14	0.616	0.658	0.399	0.486	1.25	0.854	0.478	0.581
EPSVDCCVVKI [CAD_Y735_Y735C]	1.07	0.449	0.499	0.432	0.586	0.411	1.18	0.336	0.371	1.01	0.376	0.816	0.369	0.887	1	0.494
ICFSDYVEVAD [PHACTR1_Y525_R521C]	2.01	1.81	1.42	2.34	2.26	0.609	1.55	0.555	0.698	1.28	0.459	0.985	0.549	0.607	0.515	0.467
QKMFDYLKEKK [RYR2_Y3780_L3778F]	0.797	0.558	0.438	0.459	0.595	0.574	0.958	0.445	0.471	0.805	0.403	0.763	0.471	0.743	0.738	0.363
NGSKGYAYVHF [PABPC5_Y147]	1.08	0.553	0.61	0.736	0.718	0.516	0.904	0.493	0.499	0.961	0.519	0.707	0.456	0.826	19.3	12.1
VATRWYRSLEL [CDKL5_Y177_P180L]	0.825	0.447	0.368	0.436	0.473	0.357	0.742	0.385	0.432	0.576	0.366	0.468	0.314	0.717	0.551	0.373
GDPVQYNRTTD [MLPH_Y454]	0.705	0.521	0.551	0.465	0.7	0.435	1.04	0.412	0.381	0.959	0.429	0.78	0.452	0.812	0.738	0.459
GMKIVYVYVKK [DNAI2_Y5_E2K]	1.11	0.567	0.594	0.479	0.587	0.605	1.12	0.466	0.459	0.899	0.418	0.801	0.473	1.23	0.741	0.646
WKEIEYEVVRD [CPS1_Y634]	1.31	0.701	1.2	0.549	0.754	0.583	1.09	0.553	0.609	0.899	0.384	0.573	0.473	0.697	0.65	0.524
FSLPAYMDRRD [COX4I1_Y38]	0.873	0.459	0.471	0.464	0.622	0.432	0.815	0.355	0.492	0.696	0.425	0.87	0.424	0.772	0.72	0.626
RRAKGYPIFLF [ITGB2_Y125_D128Y_YF]	0.632	0.351	0.739	0.561	0.63	0.581	0.741	0.624	0.548	1.12	0.524	0.854	0.857	0.62	0.679	0.582
EARRVYGDIIY [ALDH5A1_Y175_H180Y]	0.683	0.455	0.725	0.491	0.579	0.648	0.834	1.59	1.27	0.813	0.42	0.597	1.14	0.805	0.604	0.504
GYQPEYGQPAG [SYP_Y278_D277E]	0.662	0.451	0.451	0.401	0.659	0.487	0.851	0.426	0.419	0.725	0.467	0.466	0.443	0.801	0.553	0.495
MDDDQYALLTA [EFCAB6_Y675_T680A]	1.35	0.547	0.722	1.21	1.2	0.665	1.35	0.647	0.77	1.15	0.592	0.871	0.608	0.761	0.702	0.689

Sequence	phosphorylation enrichment [1]	phosphorylation enrichment [2]	phosphorylation enrichment [3]	phosphorylation enrichment [4]	phosphorylation enrichment [5]	phosphorylation enrichment [6]	phosphorylation enrichment [7]	phosphorylation enrichment [8]	phosphorylation enrichment [9]	phosphorylation enrichment [10]	phosphorylation enrichment [11]	phosphorylation enrichment [12]	phosphorylation enrichment [13]	SH2 binding enrichment [14]	SH2 binding enrichment [15]	SH2 binding enrichment [16]
GAVGNYSRGLA [MGMT_Y158_G160R]	0.456	0.5	0.397	0.406	0.465	0.358	0.453	0.377	0.395	0.38	0.353	0.401	0.383	0.933	0.632	0.39
TNYRLYLRSLE [MTM1_Y71]	1.11	0.666	0.556	0.595	0.776	0.524	1.3	0.552	0.555	1.22	0.554	1.31	0.504	0.9	1.09	0.591
CRWKRYQCSHD [GDPD5_Y30_R32C]	0.559	0.458	0.493	0.488	0.562	0.425	0.666	0.52	0.529	0.612	0.384	0.41	0.448	0.656	0.583	0.494
ITKQEYDEAGP [ACTA1_Y364]	1.14	0.553	0.488	0.475	0.689	0.494	1.08	0.563	0.51	0.881	0.423	0.679	0.422	0.869	0.786	7.7
GMTLSYLFWEP [NDUFS8_Y74_R77W]	1.85	0.875	0.737	4.73	3.63	3.7	1.59	0.501	0.629	5.21	1.43	1.32	0.659	0.984	0.916	0.737
TVLEHYRRTHC [MYBPC3_Y1119]	0.526	0.468	0.681	0.438	0.519	0.408	0.672	0.52	0.5	0.606	0.569	0.532	0.395	1.05	1.16	0.713
RLSVDYGKKSK [TUBA3E_Y161_S162G]	0.613	0.471	0.671	0.534	0.642	0.377	0.879	0.702	0.511	0.922	0.389	0.553	0.396	1.04	0.843	0.83
AGARMYGVLPW [PLP1_Y207_D203G]	0.67	0.542	0.724	0.489	0.495	0.447	0.75	4.8	5.5	0.55	0.842	0.667	3.6	0.782	0.549	0.513
RRNSPYSQTMK [TET2_Y819]	1.02	1.07	0.853	2.12	0.953	0.63	1.14	0.731	0.913	1.84	0.813	1.81	1.02	0.76	0.43	0.545
SYNNKYGMVAQ [APOB_Y276_K273N]	0.623	0.381	0.474	0.41	0.471	0.411	0.632	0.428	0.476	0.607	0.378	0.61	0.467	0.713	0.555	0.49
HLVLNYGVCFC [JAK2_Y613_V617F]	2.91	1.67	2.33	1.2	1.77	0.982	2.32	1.11	1.04	1.53	0.575	1.29	0.914	0.884	1.15	0.757
FQEKSYIKGTS [LCTL_Y331_L326F]	0.625	0.33	0.531	0.423	0.426	0.355	0.657	0.364	0.398	0.87	0.321	0.612	0.457	0.918	0.553	0.416
LFLALYTGLVH [PIGB_Y402]	2.04	1.26	1.4	0.775	1.39	1.46	2.02	1.42	2.29	1.53	1.2	1.38	2.11	1.43	0.7	1.51
FPKVRYHWLVL [APTX_Y214_A212V_YF]	0.994	0.81	0.672	0.428	0.631	0.529	1.21	0.42	0.425	1.18	0.461	0.978	0.513	1.31	0.999	0.892
RLSELYLRRNR [CFAP410_Y68]	1.3	0.94	0.807	0.703	0.875	0.57	1.14	0.878	0.827	0.934	1.04	1.1	0.931	0.736	0.585	0.344
TLQWMYGCDVG [HLA-B_Y123_S121W]	1.2	0.744	0.661	0.396	0.814	0.566	1.34	0.437	0.485	1.22	0.38	1.05	0.354	0.772	0.657	0.446
